Experimental data published in CN116723860A (NOVARTIS AG, dated 2023).

B1: mAb2 (antibody, human IgG1, kappa, V domains shown)
VH: QVQLVESGGGVVQPGRSLRLSCAASGFTFSVYGMNWVRQAPGKGLEWVAIIWYDGDNQYYADSVKGRFTISRDNSKNTLYLQMNGLRAEDTAVYYCARDLRTGPFDYWGQGTLVTVSS
VL: EIVLTQSPDFQSVTPKEKVTITCRASQSIGSSLHWYQQKPDQSPKLLIKYASQSFSGVPSRFSGSGSGTDFTLTINSLEAEDAAAYYCHQSSSLPFTFGPGTKVDIKR
notes: Human anti-IL-1β antibody, bivalent; also called IL-1β抗体; 卡那吉努单抗 (canakinumab)
B2: mAb1 (antibody, human IgG1, lambda, L234A L235A, V domains shown)
VH: EVQLVQSGAEVKKPGSSVKVSCKASGGTFKSYAISWVRQAPGQGLEWMGNIIPMTGQTYYAQKFQGRVTITADESTSTAYMELSSLRSEDTAVYYCARAAYHPLVFDNWGQGTLVTVSS
VL: DIVLTQPPSVSGAPGQRVTISCSGSSSNIGNHYVNWYQQLPGTAPKLLIYRNNHRPSGVPDRFSGSKSGTSASLAITGLQSEDEADYYCQSWDYSGFSTVFGGGTKLTVLG
notes: Human anti-IL-18 antibody, bivalent; also called IL-18抗体

Columns and labels:
[1] = biological target: T1, 重组人IL-1β (human, UniProt P01584 117-269); assay: solution equilibrium titration (SET), single target binding assay, mean KD
T1 construct: also called huIL-1β; IL-1b

[2] = biological target: T2, 重组人IL-18 (human, UniProt Q14116 37-193); assay: SET, single target binding assay
T2 construct: also called huIL-18; BTP 25829

| Binder | Kd [1] | binding result [2] |
| --- | --- | --- |
| B1 | 0.6 pM |  |
| B2 |  | binds |
